This sample holds only a part of the variants without activity.
Key:
biotinyl-Phe-oxazolone = assay: self-aminoacylation, catalytic enhancement (BFO) (fold over background); higher = more active; k-Seq, kA / k0A0; sequences stand for … in GGGAAUGGAUCCACAUCUACGAAUUC…UUCACUGCAGACUUGACGAAGCUG
Method in brief: (§1)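 Mutagenized RNA pools with a 21-nt variable region (0.43 μM) were reacted with each biotinyl-aminoacyl-oxazolone at 2–1250 μM for 90 minutes at room temperature, in 50 μL HEPES/NaCl/KCl/MgCl2/CaCl2 buffer containing 5% acetonitrile at pH 6.9–7.0. RNA captured on streptavidin was quantified by triplicate qPCR and by Illumina sequencing. The fraction reacted for each sequence was fit to a pseudo-first-order model with bootstrapping, and catalytic enhancement is the median kA divided by the uncatalyzed rate, taken as the low-activity peak of a bimodal Gaussian fit.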

biotinyl-Ile-oxazolone = assay: self-aminoacylation, catalytic enhancement (BIO) (fold over background); higher = more active; k-Seq, kA / k0A0; sequences stand for … in GGGAAUGGAUCCACAUCUACGAAUUC…UUCACUGCAGACUUGACGAAGCUG
Method in brief: as §1

biotinyl-Met-oxazolone = assay: self-aminoacylation, catalytic enhancement (BMO) (fold over background); higher = more active; k-Seq, kA / k0A0; sequences stand for … in GGGAAUGGAUCCACAUCUACGAAUUC…UUCACUGCAGACUUGACGAAGCUG
Method in brief: as §1

biotinyl-Val-oxazolone = assay: self-aminoacylation, catalytic enhancement (BVO) (fold over background); higher = more active; k-Seq, kA / k0A0; sequences stand for … in GGGAAUGGAUCCACAUCUACGAAUUC…UUCACUGCAGACUUGACGAAGCUG
Method in brief: as §1

biotinyl-Leu-oxazolone = assay: self-aminoacylation, catalytic enhancement (BLO) (fold over background); higher = more active; k-Seq, kA / k0A0; sequences stand for … in GGGAAUGGAUCCACAUCUACGAAUUC…UUCACUGCAGACUUGACGAAGCUG
Method in brief: as §1

biotinyl-Trp-oxazolone = assay: self-aminoacylation, catalytic enhancement (BWO) (fold over background); higher = more active; k-Seq, kA / k0A0; sequences stand for … in GGGAAUGGAUCCACAUCUACGAAUUC…UUCACUGCAGACUUGACGAAGCUG
Method in brief: as §1

| Sequence | self-aminoacylation (biotinyl-Phe-oxazolone) | self-aminoacylation (biotinyl-Ile-oxazolone) | self-aminoacylation (biotinyl-Met-oxazolone) | self-aminoacylation (biotinyl-Val-oxazolone) | self-aminoacylation (biotinyl-Leu-oxazolone) | self-aminoacylation (biotinyl-Trp-oxazolone) |
| --- | --- | --- | --- | --- | --- | --- |
| CCACACUUCAAGCCAUUGGUC [Fam1B.1 aminoacylation ribozyme variant] | 0.631 | 0.787 | 0.874 | 1.09 | 0.848 | 0.734 |
| AUUCACCUGGAUCAUCGGGUG [Fam2.2 aminoacylation ribozyme variant] | 15.1 | 2.55 | 2.39 | 3.08 | 3.12 | 3.31 |
| CUUAACCUGGUCAUCGAGUGA [Fam2.1 aminoacylation ribozyme variant] | 5.1 | 2.9 | 5.64 | 3.11 | 4.95 | 6.88 |
| CCACACUACAAGCAAUCGCUC [Fam1B.1 aminoacylation ribozyme variant] | 1.2 | 1.22 | 1.59 | 1.29 | 1.31 | 1.32 |
| AAGUCUGCUAAUAGUCUCAAG [Fam3.1 aminoacylation ribozyme variant] | 19.4 | 1.14 | 1.76 | 1.2 | 1.43 | 4.59 |
| AUUAACUUAGGUCAUCGGGUG [Fam2.2 aminoacylation ribozyme variant] | 28.7 | 2.79 | 4.59 | 2.59 | 4.73 | 4.85 |
| CUACUCCAAACUAUCGGUCUG [Fam1A.1 aminoacylation ribozyme variant] | 0.747 | 0.926 | 0.806 | 1.07 | 0.872 | 0.822 |
| AUGUUUGCUGAUAGUCGCAAG [Fam3.1 aminoacylation ribozyme variant] | 3.84 | 1.81 | 1.1 | 1.37 | 1.33 | 1.38 |
| GAGUUUGCUACUAGUCGCAAG [Fam3.1 aminoacylation ribozyme variant] | 1.59 | 1.31 | 1.04 | 1.47 | 1.66 | 1.99 |
| CCAAACUUCAAGCAUUCGGUC [Fam1B.1 aminoacylation ribozyme variant] | 1.96 | 2.1 | 1.83 | 1.86 | 1.84 | 1.75 |
| AGGUUUGCUAAUAGUCGCAAU [Fam3.1 aminoacylation ribozyme variant] | 2.94 | 2.08 | 1.63 | 1.85 | 1.86 | 2.08 |
| CUACUAGAAACAAUCGGUCUG [Fam1A.1 aminoacylation ribozyme variant] | 0.401 | 0.673 | 0.687 | 0.639 | 0.619 | 0.625 |
| CUACUUCAAAGAAUGGGUCUG [Fam1A.1 aminoacylation ribozyme variant] | 0.335 | 0.79 | 0.708 | 0.665 | 0.74 | 0.459 |
| AAUCACCUAGGUCAUCGGCUG [Fam2.2 aminoacylation ribozyme variant] | 10.9 | 2.3 | 3.21 | 2.34 | 2.14 | 2.68 |
| CUAAUUCAAACAAUCGGUGUG [Fam1A.1 aminoacylation ribozyme variant] | 0.924 | 0.75 | 0.913 | 0.659 | 1.01 | 0.691 |
| CCACACGUCAAGCAAUCGUUC [Fam1B.1 aminoacylation ribozyme variant] | 0.752 | 0.799 | 1.17 | 1.03 | 0.842 | 1.01 |
| CCACACUUCAACCAAUCCGUC [Fam1B.1 aminoacylation ribozyme variant] | 1.33 | 1.07 | 0.672 | 0.867 | 0.784 | 0.919 |
| AUUCACCCAGGUCAUCGGGGG [Fam2.2 aminoacylation ribozyme variant] | 11.7 | 1.86 | 2.1 | 1.6 | 2.17 | 1.92 |
| CCCCACUUCACGCAAUCGGUC [Fam1B.1 aminoacylation ribozyme variant] | 7.33 | 2.06 | 2.31 | 2.61 | 2.44 | 4.55 |
| AUUCACCUAGUUCAGCGGGUG [Fam2.2 aminoacylation ribozyme variant] | 15.9 | 2.07 | 2.76 | 2.28 | 3.34 | 2.62 |
| CAACAGUUCAAGCAAUCGGUC [Fam1B.1 aminoacylation ribozyme variant] | 4.54 | 1.22 | 1.28 | 1.15 | 1.38 | 3.42 |
| AUUUACCUAGAUCAUCGGGUG [Fam2.2 aminoacylation ribozyme variant] | 12.3 | 2.17 | 2.35 | 1.88 | 3 | 3.38 |
| CCACAGUUCAGGCAAUCGGUC [Fam1B.1 aminoacylation ribozyme variant] | 8.63 | 2.02 | 1.65 | 2.27 | 2.28 | 2.25 |
| CCACACUUCAAACAAACGGUC [Fam1B.1 aminoacylation ribozyme variant] | 0.66 | 0.692 | 0.626 | 0.697 | 0.598 | 0.471 |
| CCACAGUUCAAGCAAUCCGUC [Fam1B.1 aminoacylation ribozyme variant] | 1.11 | 1.19 | 1.13 | 1.2 | 1.16 | 1.04 |
| AAGUUUACUAACAGUCGCAAG [Fam3.1 aminoacylation ribozyme variant] | 2.91 | 1.58 | 1.48 | 1.63 | 1.95 | 1.38 |
